Measurements taken from US10538591B2, “Anti-fibulin-3 antibodies and uses thereof” (THE BRIGHAM AND WOMEN'S HOSPITAL, INC., priority 2014, dated 2020).
“Also recorded” adds a separate entry of the source.

Assays:
Normal human astrocytes = experiment: Viability of normal human astrocytes; format: cell-based; details: mAb428.2, conditions not given
Protocol: Normal human astrocytes and glioma cell lines (U251MG, U87MG and CNS1) were cultured as adherent cells in 96-well plates (10,000 cells/well). Three primary cultures of glioma-initiating cells (GBM8, GBM9 and GBM34) were cultured in suspension using appropriate medium in 96-well plates (25,000 cells/well). All cells were exposed to anti-Fib3/911 (50 μg/mL) or its pre-immune serum for 72 h, followed by measurement of cell viability as indicated in FIG. 5. […] In contrast, normal astrocytes were not affected by the antibody (** p<0.01; *** p<0.001, one-way ANOVA for each cell line)
Antibodies against fibulin-3 induce cytotoxicity in a wide range of glioma cells but not in normal cells. […] This antibody was added to cultures of different glioma cell lines (U251MG, U87MG, CNS1) as well as cultures of glioma initiating cells that produce large amounts of fibulin-3 (GBM8, GBM9, GBM34). […] Vehicle control (PBS) and the pre-immune serum of anti-fibulin-3/91I were tested as controls. Cell viability was measured after 72 hours. […] Neither the vehicle nor the pre-immune serum affected cell viability (FIG. 7).

[1] = system: NFkB signaling induced by fibulin-3; experiment: NF-kB luminescent reporter in U251 glioma cells transfected with fibulin-3 cDNA; format: cell-based; details: 100 μg/ml, 0, 2, 6 and 24 h
Protocol: Glioma cells (U251 line) were transfected with a luminescent reporter plasmid driven by NF-kB signaling (pGL4.32[luc2P/NF-κB-RE/Hygro], PROMEGA). Cells were co-transfected with plasmids carrying fibulin-3 cDNA (Fib3 OE) or a control cDNA (Control) and incubated in serum-free conditions for 24 h. The following day mAb428.2 (100 μg/ml) was added to the cultures and NFkB signaling activity was measured after 0, 2, 6, and 24 h.

normal adult human brain = experiment: Immunohistochemistry of normal adult human brain sections; details: anti-Fib3/911 10 μg/ml, mAb428.3C11 40 μg/ml, mAb3-5 5 μg/ml
Protocol: Frozen sections of human primary glioblastoma and normal adult human brain were fixed in ethanol/acetate buffer and processed for immunohistochemistry with the following anti-fibulin-3 antibodies: rabbit polyclonal anti-Fib3/911 (10 μg/ml), mouse monoclonal anti-fibulin-3 mAb428.3C11 (40 μg/ml), and a commercial mouse monoclonal antibody against human fibulin-3 (mAb3-5, 5 μg/ml, Santa Cruz Biotechnology). […] Both in-house generated antibodies show stronger staining in the tumor parenchyma compared to the commercial antibody. In all cases, staining is particularly intense around tumor blood vessels. […] Sections were counterstained to identify endothelial markers and cell nuclei by staining with anti-CD31 and DAPI respectively. (Data not shown).

[2] = system: GBM34 glioblastoma stem cells; experiment: BrdU uptake in tumors after intravenous treatment; format: in vivo, mice; details: 8×30 mg/kg IV, BrdU 1 h before euthanasia
Protocol: Control and tumor mice studied in FIG. 11 for overall survival (treated with antibody 8×30 mg/kg, IV) were injected with 5-bromo-2′-deoxyuridine (BrdU, 50 mg/kg, IP) 1 h before euthanasia. BrdU staining of actively dividing cells. Tumors from 3 mice per group were processed for immunohistochemistry to detect BrdU uptake, corresponding to actively dividing cells. Tissue sections were imaged by fluorescence microscopy and quantified blindly using ImageJ image analysis software. DAPI was used to stain cell nuclei. Results were expressed as number of BrdU-positive cells per unit of tumor area. […] (Data not shown).

[3] = system: fibulin-3-induced Notch signaling; experiment: Notch-reporter luminescent assay in CNS1 glioma cells transfected with fibulin-3 cDNA; format: cell-based; details: for effect on fibulin-3-induced Notch activity: monoclonal antibody 100 μg/ml, 0, 2, 6 and 24 h
Protocol: Glioma cells (CNS I line) carrying a Notch-reporter luminescent system were transfected with fibulin-3 cDNA (or a control plasmid) and incubated in serum-free conditions for 24 h.
Antibodies against fibulin-3 block the molecular mechanism triggered by this protein. To confirm whether the cytotoxic effects were related to specific inhibition of the molecular mechanisms of fibulin-3, the antibody anti-Fib3/911 was added to glioma cells (CNS1 cell line) that had been transfected to overexpress fibulin-3. Overexpression of fibulin-3 in the glioma cells increased Notch signaling activity as expected.
Glioma cells (CNS1 line) carrying a Notch-driven luminescent reporter system were transfected with fibulin-3 cDNA (Fib3 OE) or a control plasmid (Control) and incubated in serum-free conditions for 24 h. The following day the antibodies anti-Fib3/911 (50 μg/ml) or mAb428.3C11 (100 μg/ml) were added to the cultures and Notch activity was measured after 0, 2, 6, and 24 h.
Glioma cells (CNS1 line) carrying a Notch-driven luminescent reporter system were transfected with fibulin-3 cDNA (Fib3 OE) or a control plasmid (Control) and incubated in serum-free conditions for 24 h. Results on the left panel show the effect of adding mAb428.2 (100 μg/ml), followed by measurement of Notch activity after 0, 2, 6, and 24 h. Results on the right panel show the effect of adding variable concentrations of mAb428.2 (0, 5, 10, 25, 50, and 100 μg/ml), followed by measurement of Notch activity after 6 h.

fibulin-5 = target: T1, fibulin-5 (Homo sapiens, UniProt Q9UBX5); experiment: Cross-reactivity against homologous fibulin-5; format: binding
T1 sequence (Q9UBX5 24-448): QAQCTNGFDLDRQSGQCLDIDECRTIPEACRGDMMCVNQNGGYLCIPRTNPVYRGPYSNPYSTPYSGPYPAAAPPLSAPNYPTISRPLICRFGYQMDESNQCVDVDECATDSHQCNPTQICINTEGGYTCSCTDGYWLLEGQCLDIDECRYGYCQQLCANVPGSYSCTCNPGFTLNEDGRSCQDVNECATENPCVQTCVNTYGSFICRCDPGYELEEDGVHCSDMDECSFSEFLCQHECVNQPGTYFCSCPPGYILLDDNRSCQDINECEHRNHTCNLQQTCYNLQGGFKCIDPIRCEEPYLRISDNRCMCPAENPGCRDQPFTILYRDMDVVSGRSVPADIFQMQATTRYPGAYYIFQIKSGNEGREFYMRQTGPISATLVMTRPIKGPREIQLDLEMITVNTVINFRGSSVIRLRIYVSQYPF

B1: mAb428.2: mouse monoclonal IgG1 kappa antibody against human fibulin-3 peptide SEQ ID NO:2; VH SEQ ID NO: 3, VL SEQ ID NO: 4 (antibody, V domains shown)
VH: QIQLVQSGPELKKPGETVKISCKASGYSFTTYGMSWVKQAPGKGLKWMGWINTYSGVPTYADDFKGRFAFFLETSASTAYLQINNLKNEDTATYFCARWVDYWGQGTTLTVSS
VL: DIKMTQSPSSMYASLGERVTITCKASQDIKSYLSWHQQKPWKSPKTLIYYATSLADGVPSRFSGSGSGQDYSLTISSLESDDTATYYCLQHGKSPYTFGGGTKLEIK
- effect on normal astrocytes (Normal human astrocytes): without effects on normal astrocytes
- effect on fibulin-3-induced NFkB signaling [1]: blocking of this effect
- staining in normal brain (normal adult human brain): without cross-reactivity against normal brain
- staining in normal brain (normal adult human brain; listed as mAb428.3C11): complete absence of staining in normal tissue
- tumor cell division (BrdU-positive cells per unit of tumor area) [2]: significant decrease in tumor cell division
- dependence of Notch inhibition ([3]; 0, 5, 10, 25, 50 and 100 μg/ml, 6 h, 100 μg/ml over 0-24 h): time- and concentration-dependent
- effect on fibulin-3-induced Notch activity [3]: blocked fibulin-3-dependent Notch activation; also recorded: strong inhibitory effect
- effect on fibulin-3-induced Notch activity ([3]; listed as mAb428.3C11): blocked
- fibulin-3 effect on Notch activation ([3]; t=4 h, anti-Fib3/911 50 μg/ml, mAb428.3C11 100 μg/ml): completely abolished fibulin-3 effects on Notch activation
- levels of Notch activity ([3]; t=24 h, anti-Fib3/911 50 μg/ml, mAb428.3C11 100 μg/ml): indistinguishable from controls
- cross-reactivity against fibulin-5 (fibulin-5): no cross-reactivity
